Results: paper PMC8750153

Molecular target: PpPex11 H2 WT peptide (Pichia pastoris)
Assay: pull-down; biotinylated peptides on streptavidin affinity gel as bait; soluble lysate fraction of His6-tagged GFP-Pex11s as prey, 1 h at room temperature; 50 mM Tris pH 8.0, 50 mM NaCl, 5 mM EDTA; anti-GFP immunoblot

- fold binding against the H3 peptide: 2.5 fold
Substance: His6-GFP-Pex11 (natural protein)
